Experimental data from PMC4436829.
Where two headings read alike, the source gives them in different places.

Assays:
[1] = biological target: S8,15,44,55D NDC80 "Bonsai"-GFP complex; assay: FRAP
[2] = biological target: Taxol-stabilized microtubules (polymerized cow brain tubulin) (cow) (UniProt Q2HJ86); assay: FRAP
[3] = biological target: S8,15,44,55D NDC80 "Bonsai"-GFP complex; assay: TIRF-based MT-binding assay
[4] = biological target: Taxol-stabilized microtubules (polymerized cow brain tubulin) (cow) (UniProt Q2HJ86); assay: TIRF-based MT-binding assay
[5] = biological target: S15D NDC80 "Bonsai"-GFP complex; assay: TIRF-based MT-binding assay
[6] = biological target: S15D NDC80 "Bonsai"-GFP complex; assay: TIRF-based MT-binding assay; remark: listed apart in the source
[7] = biological target: noD NDC80 "Bonsai"-GFP complex (wild-type Hec1 tail); assay: FRAP
[8] = biological target: Taxol-stabilized microtubules (polymerized cow brain tubulin) (cow) (UniProt Q2HJ86); assay: single-molecule TIRF microscopy
[9] = biological target: noD NDC80 "Bonsai"-GFP complex (wild-type Hec1 tail); assay: TIRF-based MT-binding assay

Sequence of UniProt Q2HJ86 (Q2HJ86 8-447, chain 1 of 2): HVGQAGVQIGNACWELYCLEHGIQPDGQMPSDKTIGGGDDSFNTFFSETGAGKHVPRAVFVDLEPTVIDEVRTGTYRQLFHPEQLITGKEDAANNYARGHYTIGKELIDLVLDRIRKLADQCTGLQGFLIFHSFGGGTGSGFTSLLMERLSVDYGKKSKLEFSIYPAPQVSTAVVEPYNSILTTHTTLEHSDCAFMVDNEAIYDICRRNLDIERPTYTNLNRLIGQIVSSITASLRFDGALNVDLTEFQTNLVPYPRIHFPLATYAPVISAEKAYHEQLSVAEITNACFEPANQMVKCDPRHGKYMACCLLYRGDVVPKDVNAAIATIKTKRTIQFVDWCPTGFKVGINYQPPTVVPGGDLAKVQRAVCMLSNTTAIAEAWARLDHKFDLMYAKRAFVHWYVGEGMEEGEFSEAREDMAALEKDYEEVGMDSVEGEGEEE
Sequence of UniProt Q2HJ86 (Q6B856 1-439, chain 2 of 2, further chain): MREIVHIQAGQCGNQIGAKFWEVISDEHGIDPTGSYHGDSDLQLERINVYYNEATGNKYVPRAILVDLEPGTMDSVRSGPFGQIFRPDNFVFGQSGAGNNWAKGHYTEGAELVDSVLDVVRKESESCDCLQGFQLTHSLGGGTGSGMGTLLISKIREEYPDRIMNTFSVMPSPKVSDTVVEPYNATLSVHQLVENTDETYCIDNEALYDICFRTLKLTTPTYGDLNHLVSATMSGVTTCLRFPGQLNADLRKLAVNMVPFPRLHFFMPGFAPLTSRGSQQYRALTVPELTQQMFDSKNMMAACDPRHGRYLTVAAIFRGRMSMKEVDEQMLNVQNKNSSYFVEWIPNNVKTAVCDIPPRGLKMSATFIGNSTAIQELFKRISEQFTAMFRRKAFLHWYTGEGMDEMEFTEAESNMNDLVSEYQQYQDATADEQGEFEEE

Row | cooperativity parameter (ω) [1] | FRAP recovery time [2] | cooperativity parameter (ω) [3] | Kd [4] | stoichiometry N (molecules per tubulin dimer) [4] | cooperativity parameter (ω) [5] | cooperativity parameter (ω) [6] | cooperativity parameter (ω) [7] | Kd [8] | residency time (τ = 1/koff) [8] | cooperativity parameter (ω) [9] | Substance
1 | 2.4 | 0.084 s | 2.6 | 1920 nM | 1.9 | – | – | – | – | – | – | S8,15,44,55D NDC80 "Bonsai"-GFP complex
2 | – | – | – | 710 nM | 1.9 | 3 | 2 | – | – | – | – | S15D NDC80 "Bonsai"-GFP complex
3 | – | 0.29 s | – | 530 nM | 1.9 | – | – | 2 | 640 nM | 417 ms | 3.33 | noD NDC80 "Bonsai"-GFP complex (wild-type Hec1 tail)
